Reference: article PMC11760825, “Prohibitin 1 tethers lipid membranes and regulates OPA1-mediated membrane fusion” (The Journal of Biological Chemistry, 2024)

Biological target: the molecule itself
Assay: cell-based or functional assay

B1: recombinant human prohibitin 1 (PHB1), C-terminally histidine-tagged, wild type (natural protein, UniProt P35232 1-272, looked up)
chain: MAAKVFESIGKFGLALAVAGGVVNSALYNVDAGHRAVIFDRFRGVQDIVVGEGTHFLIPWVQKPIIFDCRSRPRNVPVITGSKDLQNVNITLRILFRPVASQLPRIFTSIGEDYDERVLPSITTEILKSVVARFDAGELITQRELVSRQVSDDLTERAATFGLILDDVSLTHLTFGKEFTEAVEAKQVAQQEAERARFVVEKAEQQKKAAIISAEGDSKAAELIANSLATAGDGLIELRKLEAAEDIAYQLSRSRNITYLPAGQSVLLQLPQ
Question: Which “OPA1-mediated liposome fusion (FRET lipid mixing; 0.5 μM L-OPA1 with 2 μM PHB1 against L-OPA1 alone; fusion activity from the first 2 min)” value does the source give for B1 here?
Answer: ~3 fold
